Experimental data: article PMC6343008

Molecular target: Globin E1 of the South American lungfish Lepidosiren paradoxa, recombinant (Lepidosiren paradoxa)

cooperativity (n) of the O2 equilibrium curve, pH 7.2, 20 °C: 1.19
Substance: Globin E1 of the South American lungfish Lepidosiren paradoxa, recombinant (natural protein)
